From patent publication CN113388031A (SHANGHAI INSTITUTE FOR ADVANCED STUDY OF ZHEJIANG UNIV, dated 2021) come the findings set out here.

This experiment concerns the target 新冠病毒RBD蛋白 (SARS-CoV-2 spike receptor binding domain, expressed and purified) (SARS-CoV-2, UniProt P0DTC2 319-541).

B1: 单克隆抗体35B5 (monoclonal antibody 35B5) (antibody, V domains shown, not shown: large carriers)
VH: QVQLLESGGGLVQPGRSLRLSCAASGFTFDDYAMHWVRQAPGKGLEWVSGVSWNSGTIGYADSVKGRFTISRDNAKNSLYLHMRSLRAEDTALYYCAKAVEMVRGLMGLGADPEYGMDVWGQGTTVTVSS
VL: not shown
In turn, B1 came in with a Kd of 2.19 pM.

A word on the Kd: it is the free concentration of one partner at which half of the binding sites on the other are occupied at equilibrium, for simple one-to-one binding.
